Like-named read-outs stand apart in the source and are kept apart here. Bridge positions count the residues as written; N and C are the ends. * marks the point of attachment. Isovaleryl = CC(C)CC(=O)*
T1: human ferroportin (SLC40A1) fused in frame with GFP, stably expressed on HEK293 cells (human, UniProt Q9NP59 1-571)
T1 sequence (looked up): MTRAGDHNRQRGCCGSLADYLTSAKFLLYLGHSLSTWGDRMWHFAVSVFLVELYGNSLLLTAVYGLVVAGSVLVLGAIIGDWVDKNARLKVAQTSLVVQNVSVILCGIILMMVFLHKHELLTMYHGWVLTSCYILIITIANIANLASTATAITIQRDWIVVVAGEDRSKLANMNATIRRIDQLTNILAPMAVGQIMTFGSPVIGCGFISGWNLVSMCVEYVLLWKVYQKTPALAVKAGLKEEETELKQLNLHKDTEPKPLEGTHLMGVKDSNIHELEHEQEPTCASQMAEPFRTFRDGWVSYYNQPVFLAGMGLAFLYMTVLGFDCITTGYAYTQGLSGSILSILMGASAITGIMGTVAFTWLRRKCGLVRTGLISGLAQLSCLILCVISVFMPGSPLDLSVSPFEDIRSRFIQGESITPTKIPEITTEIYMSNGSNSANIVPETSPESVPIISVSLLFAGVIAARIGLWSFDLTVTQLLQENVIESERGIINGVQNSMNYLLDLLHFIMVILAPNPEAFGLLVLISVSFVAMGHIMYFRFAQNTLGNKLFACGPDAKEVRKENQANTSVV

T2: human ferroportin (SLC40A1) fused in frame with GFP, stably expressed in HEK293 cells (human, UniProt Q9NP59 1-571)
T2 sequence (looked up): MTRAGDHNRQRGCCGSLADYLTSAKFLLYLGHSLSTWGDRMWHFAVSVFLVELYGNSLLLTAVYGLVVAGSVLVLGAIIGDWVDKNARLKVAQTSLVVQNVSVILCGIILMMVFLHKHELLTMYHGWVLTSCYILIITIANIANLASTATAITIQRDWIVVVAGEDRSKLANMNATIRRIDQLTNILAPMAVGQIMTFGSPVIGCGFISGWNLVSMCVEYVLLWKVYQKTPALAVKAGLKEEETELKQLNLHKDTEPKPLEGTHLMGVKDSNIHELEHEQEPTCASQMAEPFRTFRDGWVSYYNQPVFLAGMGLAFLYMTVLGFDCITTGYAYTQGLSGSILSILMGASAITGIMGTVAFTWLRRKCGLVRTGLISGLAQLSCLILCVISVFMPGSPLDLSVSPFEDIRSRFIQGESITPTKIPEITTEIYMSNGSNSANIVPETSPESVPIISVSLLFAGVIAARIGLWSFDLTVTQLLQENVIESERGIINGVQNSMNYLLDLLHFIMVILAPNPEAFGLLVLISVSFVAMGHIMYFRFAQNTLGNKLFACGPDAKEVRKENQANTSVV


Key:
Assay in all cases: cell-based or functional assay
[1] = molecular target: T1, human ferroportin (SLC40A1) fused in …
[2] = molecular target: T1, human ferroportin (SLC40A1) fused in …; remark: listed apart in the source
[3] = molecular target: T2, human ferroportin (SLC40A1) fused in …
[4] = molecular target: T2, human ferroportin (SLC40A1) fused in …; remark: listed apart in the source
[5] = molecular target: T2, human ferroportin (SLC40A1) fused in …; remark: listed apart in the source
[6] = molecular target: T2, human ferroportin (SLC40A1) fused in …; remark: listed apart in the source
[7] = molecular target: T2, human ferroportin (SLC40A1) fused in …; remark: listed apart in the source
[8] = molecular target: T2, human ferroportin (SLC40A1) fused in …; remark: listed apart in the source

EC50 (nM), ferroportin degradation (loss of ferroportin-GFP fluorescence) [1] [nM]	Log dilutions EC50 (nM) (n > 3) [6]	EC50 (nM) (n > 3) [7]	further results	Binder
712			EC50 (nM) (n > 3) [2]: 712 nM	H-DTHFPICIF-NH2 [Mini-Hepcidin 1-9 (Hy-DTHFPICIF-NH2)]
> 10000				FICIPFHTD (all residues are D-amino acids (retro inverse: reversed sequence in all D amino acids); C-terminal amide (-NH2)) [RI-Mini Hepcidin (Hy-DPhe-DIle-DCys-DIle-DPro-DPhe-DHis-DThr-DAsp-NH2)]
			EC50 (nM) (n > 3) [3]: > 10000 nM	H-DTHFPICAFGPRSKGWVCM-NH2 (disulfide 7-18 (inferred)) [Compound 68]
			In Vitro Activity EC50 [4]: 15 nM; Log dilutions EC50 (nM) (n > 3) [5]: 15 nM	Isovaleryl-DTHFPCIIFGPRSRGWVCK-NH2 (disulfide 6-18 (inferred)) [Compound 3]
	6	3	% Activity At 1 uM [8]: 100%; EC50 (nM) (n = 3) [8]: 3 nM	Isovaleryl-DTHFPCIKF-NH2 (also: homodimer via disulfide between Cys6 of each monomer) [Compound 326]
	8	8		Isovaleryl-DTHFPCIKFK-NH2 (also: homodimer via disulfide between Cys6 of each monomer) [Compound 345]
